# Tests used:
# Assay in all cases: pull-down binding Z-score (relative to library population); higher = stronger binding
# [1] = test system: TO-3-N3-2 (biotin conjugate); details: RNA library: Library-2
# Outline: (§1)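 Streptavidin beads bearing 100 pmol of a biotin-conjugated small molecule were incubated for 60 min at 25 °C with 1 μg of heat-folded, Cy5- or Cy3-end-labelled RNA library in phosphate/NaCl/KCl buffer. Hot SDS eluted the RNA that stayed bound after three washes, and this RNA was hybridised for 20 h at 55.5 °C to a DNA barcode microarray. Binding was expressed as a Z-score against the library mean and standard deviation, after subtraction of a beads-only signal and trimmed averaging of barcoded replicate probes.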
# TO-N3 (biotin conjugate) = details: RNA library: Library-2
# Outline: as §1
# [2] = test system: TO-3-N3 (biotin conjugate); details: RNA library: Library-2
# Outline: as §1
# [3] = test system: TO-N3-2 (biotin conjugate); details: RNA library: Library-2
# Outline: as §1
# [4] = test system: G-clamp-N3 (biotin conjugate); details: RNA library: Library-1 (pre-miRNA loops + repeats)
# Outline: as §1
Sequence,pull-down binding Z-score [1],pull-down binding Z-score (TO-N3 (biotin conjugate)),pull-down binding Z-score [2],pull-down binding Z-score [3],pull-down binding Z-score [4]
CAUACAUUUUGAAUAUGUAUG [hsa-mir-299],-0.504,0.336,0.734,-1.29,-0.304
CAUAUGUAUGUAUGUAUGUCUGUUACACAUAUG [hsa-mir-3688-1],-0.0225,-0.818,-0.769,-0.421,-0.787
CAUAUGUGUAACAGACAUACAUACAUACAUAUG [hsa-mir-3688-2],-0.463,-1.02,-0.818,-1.31,-0.866
CAUCACUGGAAUGUUCCAGCGACU [hsa-mir-3654],-0.469,-0.267,-0.233,-0.17,-0.704
CAUCAUUUGCACUACUGAUACUUGGGGUCAGAUAAUUGUUUGUGGUG [hsa-mir-4447],-0.334,-0.914,-0.801,-0.616,0.115
CAUCCCGGACGGCCUGUGAGGGAUG [hsa-mir-4787],0.0114,1.1,0.8,0.952,1.57
CAUGAGCCCUUUGGAAAGGUCUCGUG [hsa-mir-4711],-0.105,0.16,0.395,-0.478,-0.633
CAUGAUUUGGAAAAAUUACUG [hsa-mir-6128],-0.0805,-0.151,-0.174,-0.315,-0.888
CAUGCAGCAUGCUUGUCUG [hsa-mir-767],-0.377,-0.247,-0.275,0.0549,-0.359
CAUGCAGGCCACACUGACGGUAACGUUGCAGG [hsa-mir-431],0.263,1.08,0.647,1.01,1.54
CAUGCAUGUGUCUAGAAAUAUGUUUU [hsa-mir-507],0.0237,0.0527,-0.147,0.104,0.0271
CAUGCGCUAUCUCUGUGUCGUAUG [hsa-mir-380],-0.301,-0.0621,-0.0846,-0.0393,-0.269
CAUGUAUGUGUAUAUACAUAUAUAUG [hsa-mir-297],-0.125,0.218,0.635,-0.648,1.71
CAUGUGCUGAGUUCGUGCCAUAUG [hsa-mir-654],-0.228,-0.299,-0.615,0.41,0.492
CAUGUGGUGGAACGAUGGAAACGGAACAUG [hsa-mir-218-2],-0.027,0.162,-0.477,1,1.07
CAUGUUAAGUGUUGUCCUACAG [hsa-mir-5087],-0.142,-0.368,-0.483,0.127,-0.819
CAUUAACGUGGACCAGACAAUAUUAAUG [hsa-mir-4491],-0.12,-0.0907,-0.339,-0.0295,-1.14
CAUUACUAAACUCAGUAAUG [hsa-mir-451b],-0.862,-1.23,-0.822,-1.68,0.93
CAUUCACAUAGACUAUAAUUGAAUG [hsa-mir-652],-0.353,-0.944,-0.751,-0.703,0.721

Sequence,pull-down binding Z-score [1],pull-down binding Z-score (TO-N3 (biotin conjugate)),pull-down binding Z-score [2],pull-down binding Z-score [3],pull-down binding Z-score [4]
CAUUCUUUGCUA [hsa-mir-567],-0.257,0.664,0.85,-0.53,-1.3
CAUUGGUGUAAAGCUGGAGACCCACUG [hsa-mir-324],0.0332,0.738,0.527,1.09,0.528
CAUUGUAACAUGAUAGUG [hsa-mir-4264],-0.295,-0.441,-0.752,-0.45,0.389
CAUUGUAAUAGUUCAUAUGGGCACUG [hsa-mir-3660],-0.109,0.0211,-0.0141,0.0148,2.34
CAUUUCAGCGUAUAUAUGUAUAUGUGGCUGUG [hsa-mir-19b-2],0.559,1.11,1.07,0.0211,2.71
CAUUUCCUUCAUGAUUAGGAAUACUACUUUGAAAUG [hsa-mir-4712],-0.179,-0.856,-0.641,-0.896,-0.338
CAUUUGUGGCAUGGACCAUUUGUG [hsa-mir-4504],-0.518,-0.959,-0.874,-0.813,-0.183
CCAAAGAAACUUUUUUGG [hsa-mir-6079],-0.557,-0.761,-0.414,-1.1,-0.295
CCAAAUCAGAAAAGGAUUUGG [hsa-mir-4520-1],-0.242,-0.698,-0.497,-0.892,4.83
CCAAAUCCUUUUCUGAUUUGG [hsa-mir-4520-2],-0.574,-1.03,-0.645,-1.69,-0.824
CCAAAUUUCAUGCG [hsa-mir-4454],-0.18,0.0342,-0.0597,-0.0452,-1.72
CCAAGCUUAGUUUGG [hsa-mir-1302-11_1302-10_1302-3_1302-2_1302-9],-0.446,0.572,0.74,-0.61,0.00542
CCAAGGCUCUGGGGUCUCACCCUUGG [hsa-mir-6842],-0.394,0.386,0.484,0.0499,0.754
CCAAGGUUGUGCUUUUAGGAAAUGUUGGCUGUCCUGCGG [hsa-mir-5739],0.205,-0.157,-0.448,0.49,0.485
CCAAGUCUGACCACCUGAGGAAUGCCUGG [hsa-mir-1269a],-0.335,-0.288,-0.498,0.719,-0.858
CCAAUGGUAUCCAGUGAUUCGUUGA [hsa-mir-4709],-0.442,-0.0552,-0.486,0.186,-0.854
CCACAUAGGAGGGACAGCGGCCUUUCCAACAGG [hsa-mir-9500],0.043,0.58,0.253,0.847,-0.994
CCACCCACCAGGGAGCUUUCCAUGGGCUGUGGG [hsa-mir-4725],0.0654,0.567,0.47,0.788,1.47
CCACGGGCUGGGCACAGUGG [hsa-mir-3159],0.391,1.18,1.04,0.891,1.07

# Source: the supplement of paper PMC11865577
